From patent US20020081280A1
“And” between values parts separate entries of the source, which are not always exact repeats. Equal entries are not always repeated.

Columns and labels:
[1] = biological target: cellular integrins on HUVEC cells; test: 125I-Ad5lucRGD binding to HUVEC cells at 4 °C, penton base at 100 µg/ml; competitor Ad5lucRGD
[2] = biological target: coxsackievirus and adenovirus receptor (CAR) on human cells (human) (UniProt P78310); test: cell-based or functional assay
Chain of UniProt P78310 (P78310 20-365): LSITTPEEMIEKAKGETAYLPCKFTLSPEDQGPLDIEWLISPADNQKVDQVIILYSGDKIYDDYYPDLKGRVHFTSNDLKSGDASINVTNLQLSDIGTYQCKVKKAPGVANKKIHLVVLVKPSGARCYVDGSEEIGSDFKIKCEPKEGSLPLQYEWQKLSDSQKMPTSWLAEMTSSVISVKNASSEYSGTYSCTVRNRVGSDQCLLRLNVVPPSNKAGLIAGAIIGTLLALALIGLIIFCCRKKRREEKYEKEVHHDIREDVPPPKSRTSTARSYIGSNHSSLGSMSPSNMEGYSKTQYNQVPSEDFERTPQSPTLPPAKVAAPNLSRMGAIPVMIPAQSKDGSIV

“recombinant human adenovirus serotype 2 penton base protein, expressed in Sf9 cells (from UniProt P03276 1-571)” was tested, and the percent decrease of bound virus radioactivity [1] was 25%.

For “AdCMVLuc virions (E1-deleted Ad5 vector with unmodified wild-type fibers) (from UniProt P11818 1-581)”, the blockade of luciferase gene transfer by knob competition, HeLa and SCCHN cell lines (FaDu, SCC-4, SCC-25) [2] was > 90%, the gene transfer to SKOV3.ipl cells blocked by fiber knob [2] was > 90% and the luciferase activity in 293 cells blocked by recombinant knob protein (100 µg/ml) [2] was 85 to 93%. For the same substance, the luciferase activity in SKOV3.ipl cells blocked by excess fiber knob [2] was 82% and 91%, the luciferase activity in ovarian cancer ascites cells blocked by excess fiber knob [2] was 90% and the reduction of luciferase activity in CaOV-3 cells by fiber knob blockade, dose 3x10^6 PFU [2] was 55%. The reduction of luciferase activity in UCI-101 cells by the fiber knob block [2] was 94% and 97%.
